Assay results published in article PMC3352945 (The Journal of Cell Biology, 2012).

Assays:
cpTatC [1] = target: T1, cpTatC (pea (endogenous in pea thylakoids)); assay: radioligand binding
cpTatC [2] = target: T1, cpTatC; assay: co-IP

Kd (cpTatC [1]): 1.07 nM | stoichiometry N (cpTatC [1]): 1.27 tOE17 per cpTatC | stoichiometry N (cpTatC [2]): 0.79 tOE17 per cpTatC
B1: tOE17 V-20F precursor protein (natural protein)
chain: MASAEGDAVAQAGRRAFIGLVATGIVGGALSQAARAETVKTIKIGAPPPPSGGLPGTLNSDQARDFDLPLKERFYLQPLPPAEAAARVKTSAQDIINLKPLIDKKAWPYVQNDLRLRASYLRYDLKTVIASKPKEEKKSLKELTGKLFSTIDDLDHAAKIKSTPEAEKYFAATKDALGDVLAKLG
modifications: [3H]-Leu radiolabel (unlabeled tOE17 used as the chase in the dissociation test)
